Test system: MutY (Escherichia coli)
Settings: A.G to C-G correction by complementation of mutS mutY extract; fraction V

Substance: A.G mismatch heteroduplex
- activity: 480000 units/mg

Source: patent US5556750
